Legend:
GtrS [1] = target: T1, GtrS (Pseudomonas aeruginosa, UniProt Q9HZ47); assay: isothermal titration calorimetry with purified recombinant GtrS-LBD; 2-KG also accelerates autophosphorylation of full-length GtrS in membranes; format: binding
[2] = test system: GltR (Pseudomonas aeruginosa PAO1); assay: EMSA; settings: EMSA: 2 nM 32P-DNA, 50 mM Tris-HCl pH 7.5, 10 mM NaCl, 0.5 M Mg acetate (so in the source), 0.1 mM EDTA, 1 mM DTT, 5% glycerol, 20 ug/ml poly(dI-dC), 200 ug/ml BSA …
GtrS [3] = target: T1, GtrS; assay: isothermal titration calorimetry with purified recombinant GtrS-LBD; format: binding
[4] = target: T2, GltR (Pseudomonas aeruginosa PAO1) (UniProt G3XCY6); assay: EMSA; settings: EMSA: 2 nM 32P-DNA, 50 mM Tris-HCl pH 7.5, 10 mM NaCl, 0.5 M Mg acetate (so in the source), 0.1 mM EDTA, 1 mM DTT, 5% glycerol, 20 ug/ml poly(dI-dC), 200 ug/ml BSA …
T2 sequence: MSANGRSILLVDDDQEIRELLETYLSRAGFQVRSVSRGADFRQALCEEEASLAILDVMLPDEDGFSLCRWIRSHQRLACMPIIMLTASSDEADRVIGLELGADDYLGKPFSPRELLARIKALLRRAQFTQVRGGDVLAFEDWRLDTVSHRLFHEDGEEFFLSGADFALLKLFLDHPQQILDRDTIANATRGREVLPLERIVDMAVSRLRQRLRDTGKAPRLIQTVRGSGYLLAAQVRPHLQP

T1 sequence (Q9HZ47 30-197): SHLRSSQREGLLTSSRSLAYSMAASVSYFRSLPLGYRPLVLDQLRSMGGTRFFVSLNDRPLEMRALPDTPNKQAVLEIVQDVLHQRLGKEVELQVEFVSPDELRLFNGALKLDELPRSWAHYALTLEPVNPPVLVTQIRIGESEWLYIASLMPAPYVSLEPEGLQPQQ

| Compound | K half [2] [nM] | further results |
| --- | --- | --- |
| O=C(O)C(=O)[C@@H](O)[C@H](O)[C@H](O)CO [2-KG, 2-ketogluconate] | – | Kd (GtrS [1]): 4.95 ± 0.8 µM |
| Pedd/gap-1 promoter fragment | 1000 | – |
| Pglk promoter fragment | 1000 | – |
| PtoxA promoter fragment | 1000 | – |
| PoprB promoter fragment | 1000 | – |
| O=C(O)[C@H](O)[C@@H](O)[C@H](O)[C@H](O)COP(=O)(O)O [6PG, 6-phosphogluconate] | – | Kd (GtrS [3]): 98 ± 33 µM |
| AGATCTTGCAGCTTTACCGAGAGCCTCAACGGCTGGCGCTGATTCTGATAGGTCGATATCCGCCGGCGCTTGGCTGGCGGCTGTCTCTCCGGCAACATCTGCCGACCGTCCCGCCCTGGCGCGGGGCATTGCGGTTCAACGACGATGAATAACGACAACAAGAGAAGCGCCGGCGGCCTCGGCCTGGTCGGCGATATCGCTGCAG (double strand) [Pglk promoter fragment] | – | K half [4]: 1000 nM |

Source: publication PMC4081096, “GtrS and GltR form a two-component system: the central role of 2-ketogluconate in the expression of exotoxin A and glucose catabolic enzymes in Pseudomonas aeruginosa” (Nucleic Acids Research, 2014)
